Measured values reported in patent US11419948B2, “Functionalized microgels with fibrin binding elements” (Georgia Tech Research Corporation, priority 2013, dated 2022).

Molecular target: T1, fibrinogen (Homo sapiens, UniProt P02671+P02675+P02679)
T1 sequence (P02671 20-629 limits assumed): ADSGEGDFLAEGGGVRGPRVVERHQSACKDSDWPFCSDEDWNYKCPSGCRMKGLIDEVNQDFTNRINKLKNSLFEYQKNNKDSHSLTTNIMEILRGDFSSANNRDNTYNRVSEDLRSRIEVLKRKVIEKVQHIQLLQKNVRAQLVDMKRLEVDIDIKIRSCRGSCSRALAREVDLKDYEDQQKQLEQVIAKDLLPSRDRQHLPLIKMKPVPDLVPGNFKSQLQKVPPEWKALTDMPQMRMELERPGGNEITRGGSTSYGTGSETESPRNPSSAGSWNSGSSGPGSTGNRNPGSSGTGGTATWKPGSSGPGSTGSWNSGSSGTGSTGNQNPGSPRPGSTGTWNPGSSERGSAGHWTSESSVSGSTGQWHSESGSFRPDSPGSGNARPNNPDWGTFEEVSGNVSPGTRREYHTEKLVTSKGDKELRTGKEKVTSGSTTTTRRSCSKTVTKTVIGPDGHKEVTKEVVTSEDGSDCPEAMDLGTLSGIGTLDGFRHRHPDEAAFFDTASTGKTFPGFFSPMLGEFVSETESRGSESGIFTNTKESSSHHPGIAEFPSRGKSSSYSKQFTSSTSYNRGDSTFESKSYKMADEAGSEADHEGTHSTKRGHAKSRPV
T1 sequence (P02675 31-491): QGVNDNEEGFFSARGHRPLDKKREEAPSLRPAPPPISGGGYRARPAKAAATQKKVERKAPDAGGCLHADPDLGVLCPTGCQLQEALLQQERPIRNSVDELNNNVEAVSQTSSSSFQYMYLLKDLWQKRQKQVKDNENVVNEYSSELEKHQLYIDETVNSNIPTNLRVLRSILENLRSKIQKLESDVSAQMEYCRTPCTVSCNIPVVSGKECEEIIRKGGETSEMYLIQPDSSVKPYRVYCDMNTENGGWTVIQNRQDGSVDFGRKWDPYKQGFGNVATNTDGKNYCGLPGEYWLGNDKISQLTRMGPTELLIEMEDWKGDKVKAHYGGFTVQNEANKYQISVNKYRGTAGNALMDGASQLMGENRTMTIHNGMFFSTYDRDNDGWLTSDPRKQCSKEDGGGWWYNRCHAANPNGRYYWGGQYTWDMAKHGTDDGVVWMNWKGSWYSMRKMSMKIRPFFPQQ
T1 sequence (P02679 27-453): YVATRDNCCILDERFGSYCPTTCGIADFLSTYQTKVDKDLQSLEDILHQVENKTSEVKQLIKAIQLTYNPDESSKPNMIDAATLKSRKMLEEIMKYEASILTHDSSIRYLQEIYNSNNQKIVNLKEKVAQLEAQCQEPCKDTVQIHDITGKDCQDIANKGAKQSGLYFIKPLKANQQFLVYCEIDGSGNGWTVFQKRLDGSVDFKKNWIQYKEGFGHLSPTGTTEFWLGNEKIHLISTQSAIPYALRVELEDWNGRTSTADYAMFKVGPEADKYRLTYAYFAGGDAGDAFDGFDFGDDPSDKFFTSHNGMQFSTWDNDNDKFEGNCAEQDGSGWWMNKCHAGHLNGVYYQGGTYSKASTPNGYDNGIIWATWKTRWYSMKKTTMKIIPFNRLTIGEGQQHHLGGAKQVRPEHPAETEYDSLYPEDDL
Assay: Clottability assay (protein incorporation into clot)
Format: biochemical
Settings: all H6 concentrations tested
Description: The clottability assay involved clotting purified fibrinogen or fibrinogen in the presence of H6 or S11, subsequently removing the gelled clot from solution, and measuring the amount of protein that was not incorporated into the clot. The same molar ratios of H6 and S11 to fibrinogen were investigated as per the turbidity assay. Soluble protein concentrations were measured using standard Quant-It assay protocols, and results were normalized to unpolymerized fibrinogen or fibrinogen-nanobody solutions of identical protein composition.

B1: H6: fibrin-specific human sdFv clone from phage biopanning, SEQ ID NO: 1 (protein)
VHH: QVQLLESGGGLVQPGGSLRLSCAASGDRFTHNDMGWVRQAPGKGLEWVSTIPTTDGSTYYADSVKGRFTISRDNSKSTLYLQMNSLRAEDTAVYYCATGYMWKAPAYVKYWGQGTLVTVSSAAAEQKLISEEDLNSAAHYTDIG
  protein incorporation (clottability): greater than 80%
